Data as given in patent publication US8598127B2, “Peptides for inhibiting MDM2 function” (Korea Research Institute of Bioscience & Biotechnology, priority 2004, dated 2013).
Where no end group is shown, it is not given here.

Assays:
[1] = target: T1, mdm2(3-109) (Homo sapiens, UniProt Q00987); experiment: Chemical shift perturbation experiment (15N-1H HSQC NMR titration of 15N-mdm2(3-109) with p53 TAD or fragment peptides); assay type: binding; conditions: 0.2 mM 15N-mdm2(3-109), 25° C.; for binding affinity to mdm2 as indicated by chemical shift perturbation: 15N-1H HSQC titration
T1 construct: made in house; host or cells: E. coli BL21(DE3), pLM1 vector
Description: All NMR data were measured using a Varian Unity INOVA 600 MHz NMR spectrometer at 5° C. and 25° C. ^15N—^1H HSQC (heteronuclear single quantum coherence spectroscopy) spectra were collected with spectral widths of 8000 Hz in the ^1H dimension and 1800 Hz in the ^15N dimension, and with 1024 data points in the t2 domain and 256 data points in the t1 domain.
Also, ^15N—^1H HSQC spectra were collected for the ^15N-labeled mdm2(3-109) protein, dissolved in a buffer solution of 25 mM Tris HCl (pH 7.5), 150 mM NaCl, 2 mM DTT, 0.1 mM PMSF, 0.1 mM EDTA, 0.1 mM benzamidine and 0.02% NaN3, at 0.2 mM of ^15N-mdm2(3-109) and 25° C.
First, HSQC spectra of ^15N-mdm2(3-109) in a free state were collected (FIG. 4). […] Chemical shift assignments of mdm2(3-109) in a free and bound states were performed using 3D NMR experiments, HNCA, HNCOCA, ^15N-edited TOCSY and ^15N-edited NOESY spectrum analysis.
2D ^15N—^1H HSQC spectra were collected for the free (unbound) form of purified ^15N-labeled mdm2(3-109).

[2] = system: Carcinoma cell lines, MCF-7, HCT 11 6, A549 and SNU-71; experiment: MTT assay, induction of apoptosis of cancer cells; assay type: cell-based; conditions: cancer cells treated for 18 hrs
Description: Carcinoma cell lines, MCF-7, HCT 11 6, A549 and SNU-71, were cultured in RPMI 1640 medium supplemented with 10% FBS and 100 U/ml penicillin/streptomycin in a humidified 5% CO2 incubator (Gibco-BRL, UK) at 37° C. The cultured cancer cells were treated for 18 hrs with HIV-1 Tat(48-60)-p53 TAD(50-54), an alanine-substituted peptide of SEQ ID NO. 7 and a trytophane-substituted peptide of SEQ ID NO. 11. Then, induction of apoptosis of cancer cells was determined by an MTT assay using the tetrazolium salt, 3-(4,5-dimethylthiazol-2-yl)-2,5-diphenyltetrazolium bromide (MTT). In the MTT assay, after the cancer cells were incubated for 2 hrs in RPMI 1640 medium supplemented with 10% FBS and 0.5 mg/ml MTT, the medium was removed, and 100 μl of DMSO was added.
Four carcinoma cell lines were treated for 18 hrs with HIV-1 Tat(48-60)-p53 TAD(50-54), which was prepared by linking a cell permeable peptide HIV-1 Tat(48-60) consisting of amino acid residues 48-60 of the HIV-1 Tat protein of SEQ ID NO. 22 to the N-terminal end of p53 TAD(50-54), and alanine-substituted and trytophane-substituted peptides thereof. Then, the induction of apoptosis of cancer cells was determined by an MTT assay, and the cancer cells were microscopically observed.

binding affinity to mdm2 as indicated by chemical shift perturbation [1] | changes in chemical shift of 15N-mdm2(3-109) after addition of the peptide ([1]; 15N-1H HSQC) | Substance | effect on apoptosis induction in cancer cells [2]
low binding affinity to mdm2 | small change in chemical shift | DVEQVV (DVEQVV-NH2) [Val-substituted peptide having I50V/W53V/F54V substitutions relative to the native p53(49-54) peptide] | –
– | – | DIEQWF-NH2 [p53 TAD(49-54), DIEQWF] | effectively induces apoptosis
– | – | DWEQWW | greatly higher activity in inducing apoptosis than the native DIEQWF
high affinity | – | p53 TAD(1-73): recombinant p53 TAD domain corresponding to residues 1-73 of the TAD of human p53 | –
– | – | DAEQAA | unable to induce apoptosis in cancer cells
